Patent publication US12099068B2, “Biomarkers for graft-versus-host disease” (Incyte Corporation, priority 2018, dated 2024)
Several values for one entry are separate records, joined by “and”; a condition that tells them apart may be missing. Equal entries are not always repeated.

B1: TNFRSF14 (protein, UniProt Q92956 39-283, looked up)
Tumor necrosis factor …: LPSCKEDEYPVGSECCPKCSPGYRVKEACGELTGTVCEPCPPGTYIAHLNGLSKCLQCQMCDPAMGLRASRNCSRTENAVCGCSPGHFCIVQDGDHCAACRAYATSSPGQRVQKGGTESQDTLCQNCPPGTFSPNGTLEECQHQTKCSWLVTKAGAGTSSSHWVWWFLSGSLVIVIVCSTVGLIICVKRRKPRGDVVKVIVSVQRKRQEAEGEATVIEALQAPPDVTTVAVEETIPSFTGRSPNH
B2: TNFRSF6B (protein, UniProt O95407 30-300, looked up)
Tumor necrosis factor …: VAETPTYPWRDAETGERLVCAQCPPGTFVQRPCRRDSPTTCGPCPPRHYTQFWNYLERCRYCNVLCGEREEEARACHATHNRACRCRTGFFAHAGFCLEHASCPPGAGVIAPGTPSQNTQCQPCPPGTFSASSSSSEQCQPHRNCTALGLALNVPGSSSHDTLCTSCTGFPLSTRVPGAEECERAVIDFVAFQDISIKRLQRLLQALEAPEGWGPTPRAGRAALQLKLRRRLTELLGAQDGALLVRLLQALRVARMPGLERSVRERFLPVH
B3: PRKCQ (protein, UniProt Q04759 1-706, looked up)
Protein kinase C theta type: MSPFLRIGLSNFDCGSCQSCQGEAVNPYCAVLVKEYVESENGQMYIQKKPTMYPPWDSTFDAHINKGRVMQIIVKGKNVDLISETTVELYSLAERCRKNNGKTEIWLELKPQGRMLMNARYFLEMSDTKDMNEFETEGFFALHQRRGAIKQAKVHHVKCHEFTATFFPQPTFCSVCHEFVWGLNKQGYQCRQCNAAIHKKCIDKVIAKCTGSAINSRETMFHKERFKIDMPHRFKVYNYKSPTFCEHCGTLLWGLARQGLKCDACGMNVHHRCQTKVANLCGINQKLMAEALAMIESTQQARCLRDTEQIFREGPVEIGLPCSIKNEARPPCLPTPGKREPQGISWESPLDEVDKMCHLPEPELNKERPSLQIKLKIEDFILHKMLGKGSFGKVFLAEFKKTNQFFAIKALKKDVVLMDDDVECTMVEKRVLSLAWEHPFLTHMFCTFQTKENLFFVMEYLNGGDLMYHIQSCHKFDLSRATFYAAEIILGLQFLHSKGIVYRDLKLDNILLDKDGHIKIADFGMCKENMLGDAKTNTFCGTPDYIAPEILLGQKYNHSVDWWSFGVLLYEMLIGQSPFHGQDEEELFHSIRMDNPFYPRWLEKEAKDLLVKLFVREPEKRLGVRGDIRQHPLFREINWEELERKEIDPPFRPKVKSPFDCSNFDKEFLNEKPRLSFADRALINSMDQNMFRNFSFMNPGMERLIS
B4: CLEC1A (protein, UniProt Q8NC01 1-280, looked up)
C-type lectin domain family 1 …: MQAKYSSTRDMLDDDGDTTMSLHSQGSATTRHPEPRRTEHRAPSSTWRPVALTLLTLCLVLLIGLAALGLLFFQYYQLSNTGQDTISQMEERLGNTSQELQSLQVQNIKLAGSLQHVAEKLCRELYNKAGAHRCSPCTEQWKWHGDNCYQFYKDSKSWEDCKYFCLSENSTMLKINKQEDLEFAASQSYSEFFYSYWTGLLRPDSGKAWLWMDGTPFTSELFHIIIDVTSPRSRDCVAILNGMIFSKDCKELKRCVCERRAGMVKPESLHVPPETLGEGD
B5: KIM1 (protein, UniProt Q96D42 21-364, looked up)
Hepatitis A virus cellular …: SVKVGGEAGPSVTLPCHYSGAVTSMCWNRGSCSLFTCQNGIVWTNGTHVTYRKDTRYKLLGDLSRRDVSLTIENTAVSDSGVYCCRVEHRGWFNDMKITVSLEIVPPKVTTTPIVTTVPTVTTVRTSTTVPTTTTVPMTTVPTTTVPTTMSIPTTTTVLTTMTVSTTTSVPTTTSIPTTTSVPVTTTVSTFVPPMPLPRQNHEPVATSPSSPQPAETHPTTLQGAIRREPTSSPLYSYTTDGNDTVTESSDGLWNNNQTQLFLEHSLLTANTTKGIYAGVCISVLVLLALLGVIIAKKYFFKKEVQQLSVSFSSLQIKALQNAVEKEVQAEDNIYIENSLYATD

Test system: plasma proteins
Experiment: Plasma proteins modulated between baseline and day 28 in responders (CR, VGPR, PR; n = 19), Example 6 (Table 13)
Type: in vivo, human
Conditions: plasma protein (OLINK NPX); responders (CR, VGPR, PR; n = 19); itacitinib 200 mg or 300 mg QD with corticosteroids; day 28 vs baseline
Outline: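 Plasma at baseline/screening and day 28 profiled for >1000 proteins by OLINK proximity extension assay, reported as NPX (log2). Steroid-naive and steroid-refractory patients pooled. Paired and unpaired t tests, ANOVA and Pearson correlation applied; significance at P<0.05.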

Molecule	Fold Change, Decreased Expression from Baseline to Day 28	Fold Change, Increased Expression from Baseline to Day 28
B1	−1.2658	–
B2	−1.3504	–
B3	−1.3251	–
B4	−1.2841	–
B5	–	1.7741 and 1.757
